The data set concerns MS2 coat protein. The data set can be described thus: apparent KD of MS2 coat protein; designed switch direction (-1 OFF switch, 1 ON switch): -1; higher = weaker reporter binding. In outline: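 An oligonucleotide input, 200 uM small-molecule ligand, or no input was present during titration of SNAP-549-labelled MS2 coat protein, which was doubled from 0.7 or 1.5 nM to 3 µM. Designed RNA switches had been transcribed on Illumina chips by stalled E. coli RNA polymerase. Apparent KD per design is the median over clusters of curves fitted to normalised cluster fluorescence.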

[1] abbreviates: input ligand: microRNA oligo, concentration not stated.
[2] abbreviates: Eterna round: R95, input ligand: microRNA oligo, concentration not stated.

Take “AAAAGCUUUUUAAAAAAAAACAUGAGGAUCACCCAUGUUAAAAAAUAUAAGGUGAUAAAAAAUUGUCAAAAAAAAAA [Jieuxbot 008 - Jieux - Sensor v2, turn-off variant] (Eterna round: R96, puzzle: Sensor v2, turn-off variant)”: the “apparent KD of MS2 coat protein” value runs as follows: (input ligand: FMN 200 uM) 0.129 µM; under setting [1], 0.148 µM; (input ligand: none) 0.108 µM.

With “AAAAGGCAGGGAGGAUAUGCUUACCUGGGUCGUCUUCGAACAUGAGGAUCACCCAUGUAGUCGACGCAGAAGGCCCUCAAAGCC [Mat - Exclusion NG 2 - Mod of JL - D59] (Eterna round: R96, puzzle: Exclusion NG 2)”, the “apparent KD of MS2 coat protein” value came out at 0.0427 µM (input ligand: FMN 200 uM), 0.0256 µM under setting [1] and 0.0217 µM (input ligand: none).

“AAAAGGCUAGGAUAUACCAGUGGGUGUAAGAACUCAAAGUUACAUGAGGAUCACCCAUGUAGAAGGAGUAAAAU [Diriti] (puzzle: Exclusion 2)”: the “apparent KD of MS2 coat protein” value under setting [2] was found to be 0.0162 µM.

On to “AAAAGGUAAGGAUAUACAUGCCCAAAACACGUCCUCAGUCCACAUGAGGAUCACCCAUGUAGAAGGUACGAAAA [Ribiesdi] (Eterna round: R97, puzzle: Exclusion 2)”, for which the “apparent KD of MS2 coat protein” value (input ligand: FMN 200 uM) stood at 0.285 µM and the “apparent KD of MS2 coat protein” value (input ligand: none) is 0.0932 µM.

In the case of “AAAAGUGAAGAGGAUAUCUGCGCCGAACGGUAAAGAGAAGGCUUCACAUGAGGAUCACCCAUGUGGGCCACAGA [EX6 C.5] (Eterna round: R97, puzzle: Exclusion 6)”, the “apparent KD of MS2 coat protein” value was found to be 0.0793 µM (input ligand: FMN 200 uM) and 0.0198 µM (input ligand: none).

Regarding “AAAAGUUAAGGAUAUACAGGGAGCCGCGGCGACUCGCCGCAACAUGAGGAUCACCCAUGUAGAAGGUAGCCAAA [Enbibi] (puzzle: Exclusion 2)”, under setting [2], the “apparent KD of MS2 coat protein” value is 0.0237 µM.

Turning to “AAAAGUUAAGGAUAUACUUGAGGAUCACCCAAGUAGGUGGCUUCAGCCGGAAACCGGCGUAGAAGGUAGCAGAA [Laentezabe] (Eterna round: R97, puzzle: Exclusion 3)”, the “apparent KD of MS2 coat protein” value (input ligand: FMN 200 uM) amounted to 0.0549 µM and the “apparent KD of MS2 coat protein” value (input ligand: none) came out at 0.0563 µM.

As for “AAAAUAAAAAUAAACAAGCACAUGAGGAUCACCCAUGUUCGUCUUAUAAAAAUAAAAAUAAAAAACAAAAAAUAAAA [Sensor V2: 48] (Eterna round: R96, puzzle: Sensor v2, turn-off variant)”, the “apparent KD of MS2 coat protein” value (input ligand: FMN 200 uM) was 0.019 µM, the “apparent KD of MS2 coat protein” value under setting [1] is 0.0296 µM and the “apparent KD of MS2 coat protein” value (input ligand: none) was determined as 0.0206 µM.

Consider “AAAAUAACAUGAGGAUCACCCAUGUAAUUGGGUAGUCCGAGCGAGGAUAUCCUCGCCGGAAAAGAGGAGAAGGCGCAAUGAAAG [Usxeeran] (Eterna round: R96, puzzle: Exclusion NG 3)”, for which the “apparent KD of MS2 coat protein” value reads like this: (input ligand: FMN 200 uM) 0.882 µM; under setting [1], 0.424 µM; (input ligand: none) 0.509 µM.

On to “AAAAUACAUGAGGAUCACCCAUGUGAGGAUAUGAGCGUCAUUUAUAUAUAUUAGACGCUCAGAAGGCACAUAAA [JR_Ex1_Sub069] (Eterna round: R97, puzzle: Exclusion 1)”, for which the “apparent KD of MS2 coat protein” value runs as follows: (input ligand: FMN 200 uM) 0.214 µM; (input ligand: none) 0.0443 µM.

As to “AAAAUGUGAGGAUAUCACGGAGCCUCGCAUGACGAGACUCCUGAGAAGGCACAUGAGGAUCACCCAUGUCCUGU [EX4 A.10] (Eterna round: R97, puzzle: Exclusion 4)”, the “apparent KD of MS2 coat protein” value runs as follows: (input ligand: FMN 200 uM) 0.382 µM; (input ligand: none) 0.057 µM.

Consider “AAAAUGUGAGGAUAUCAGGUGUGCUAGAGAACUGGUACAUCUGAGAAGGCACAUGAGGAUCACCCAUGUUCUUC [Mat - Exclusion 4 - Mod of JL - D57] (puzzle: Exclusion 4)”, for which, under setting [2], the “apparent KD of MS2 coat protein” value was 0.0309 µM.

As to “AAAAUGUGAGGAUAUCAGGUGUGCUAGCGUACUGGUACAUCUGAGAAGGCACAUGAGGAUCACCCAUGUUUCUU [Mat - Exclusion 4 - Mod of JL - D44] (puzzle: Exclusion 4)”, the “apparent KD of MS2 coat protein” value under setting [2] was found to be 0.0225 µM.

With “AAACAGGAUGUAAGGAUAUCCAAGUGCUAAGCACGGGAGAAGGUACAUGAGGAUCACCCAUGUGGUCUUCCAAU [Quesardi] (Eterna round: R97, puzzle: Brourd's mod of Exclusion 4)”, the “apparent KD of MS2 coat protein” value is, setting by setting: (input ligand: FMN 200 uM) 0.253 µM; (input ligand: none) 0.12 µM.

Regarding “AAACCUAUAGGAUAUACAUGAGGAUCACCCAUGUUGCGAUUUUUUAGGUAACAGAUCCGUAGAAGGGUAGGUCA [Reinesce] (puzzle: Exclusion 3)”, the “apparent KD of MS2 coat protein” value under setting [2] was 0.0381 µM.

Turning to “AAACCUAUAGGAUAUACAUGAGGAUCACCCAUGUUGCGAUUUUUUAGGUAACAGAUCCGUAGAAGGGUAGGUUA [Anzaoror] (puzzle: Exclusion 3)”, under setting [2], the “apparent KD of MS2 coat protein” value was determined as 0.0244 µM.

Regarding “AAACCUCGUGUAAGGAUAUCAAGGCUUAGCGGGUGUGAGAAGGUACAUGAGGAUCACCCAUGUCAUGAUUUACG [mod2 score 1 eternabot] (Eterna round: R97, puzzle: Brourd's mod of Exclusion 4)”, the “apparent KD of MS2 coat protein” value was found to be 0.798 µM (input ligand: FMN 200 uM) and 0.252 µM (input ligand: none).

On to “AAACCUGCCCAUGACCGCAAGCUUUUUACUUGUCUUACCACAUGAGGAUCACCCAUGUGACAUGGGCUCCUUAUAAA [Ceedbe] (puzzle: Sensor v3, turn-off variant 2)”, for which the “apparent KD of MS2 coat protein” value reads like this: (Eterna round: R95, input ligand: FMN 200 uM) 0.0128 µM; under setting [2], 0.00481 µM; (Eterna round: R95, input ligand: none) 0.0112 µM.
